According to paper PMC2972665 (Biochemistry, 2010):

Target: the molecule itself
Assay: AUC

B1: Wild type SgrAI (enzyme, Streptomyces griseus, UniProt Q9F6L0 1-339, looked up)
chain: MPFTYSIEATRNLATTERCIQDIRNAPVRNRSTQFQLAQQNMLAYTFGEVIPGFASAGINGMNYRDVIGRPVENAVTEGTHFFRDDFRVDSNAKAKVAGDIFEIVSSAVMWNCAARWNSLMVGEGWRSQPRYSRPTLSPSPRRQVAVLNLPRSFDWVSLLVPESQEVIEEFRAGLRKDGLGLPTSTPDLAVVVLPEEFQNDEMWREEIAGLTRPNQILLSGAYQRLQGRVQPGEISLAVAFKRSLRSDRLYQPLYEANVMQLLLEGKLGAPKVEFEVHTLAPEGTNAFVTYEAASLYGLAEGRSAVHRAIRELYVPPTAADLARRFFAFLNERMELVNG
In the case of B1, the “stoichiometry N” value is reported as 2 SgrAI chains in the DNA bound dimer.
